The results in this text go back to article PMC11272584 (Nature Metabolism, 2024).

Experiment [1] has as its target T1, GIPR E291K (Homo sapiens, UniProt P48546, E291K).
T1 construct: host or cells: HEK293
T1 sequence (P48546 22-466 E291K): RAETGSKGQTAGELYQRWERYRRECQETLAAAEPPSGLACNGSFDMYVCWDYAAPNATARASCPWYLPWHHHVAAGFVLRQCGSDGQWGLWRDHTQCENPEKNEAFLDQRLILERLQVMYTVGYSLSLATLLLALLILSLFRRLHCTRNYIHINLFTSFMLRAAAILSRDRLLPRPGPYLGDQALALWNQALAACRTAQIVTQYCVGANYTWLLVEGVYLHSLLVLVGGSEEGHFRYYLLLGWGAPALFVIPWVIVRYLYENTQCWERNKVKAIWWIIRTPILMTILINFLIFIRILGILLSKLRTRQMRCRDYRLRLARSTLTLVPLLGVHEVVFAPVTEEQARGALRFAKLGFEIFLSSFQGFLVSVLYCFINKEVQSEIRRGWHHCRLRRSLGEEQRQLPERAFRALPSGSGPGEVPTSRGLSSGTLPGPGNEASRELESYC
Kind of experiment: cAMP accumulation. It counts as cell-based. (In general: Cyclic AMP is a second messenger, typically raised through Gs and lowered through Gi signalling.)
Procedure: (§1) HEK293 (CRL-1573, American Type Culture Collection) and β-arrestin 1/2 knockout cells, generated from HEK293A[48], were used for cAMP measurement, homologues competition binding and β-arrestin 2 recruitment. […] Both cell lines were cultured at 5% CO2 at 37 °C in Roswell Park Memorial Institute GlutaMAX-I supplemented with 10% fetal bovine serum, 180 units ml^−1 penicillin, and 45 g ml^−1 streptomycin. For the cAMP and binding experiments, cells were transfected with the calcium phosphate precipitation method[49].
(§2) cAMP production was measured with the DiscoverX Hithunter cAMP assay according to the manufacturer’s protocol (DiscoverX). […] On the day of the assay, the cells were washed twice with HEPES-buffered saline (HBS) and incubated with HBS and 1 mM 3-isobutyl-1-methylxanthine for 30 min at 37 °C. […] After the incubation, the assay medium was removed from the plate and the cells were washed with 30 µl PBS and treated with 40 µl enzyme donor–lysis buffer–chemiluminescent reagents and 10 µl cAMP antibodies for 60 min before 40 µl enzyme acceptor solution added. After a 3-h incubation on a shaking table in the dark, the cAMP accumulation was measured based on luminescence with a Perkin Elmer EnVision 2104 Multilabel Microplate Reader. […]

Experiment [2] has as its system GIPR variants (groups). Kind of experiment: cAMP accumulation. The conditions noted are these: for In vitro groups (cAMP): cAMP part of the in vitro group; for percentage_camp: cAMP production compared with WT; for Beta, cAMP: in vitro cAMP production per GIPR variant. In kind it is cell-based, human.
The test system of experiment [3] is GIPR variants (groups). Kind of experiment: β-arrestin 2 recruitment (BRET).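 For all read-outs here: BRET readout of β-arrestin 2 recruitment in transiently transfected HEK293 cells expressing WT GIPR or a GIPR variant plus GPCR kinase 2, Rluc8 donor and citrine acceptor.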 The conditions noted are these: for In vitro groups (β-arrestin): arr part of the in vitro group; for Beta, Barr: in vitro β-arrestin recruitment per GIPR variant.
Procedure: Both cell lines were cultured at 5% CO2 at 37 °C in Roswell Park Memorial Institute GlutaMAX-I supplemented with 10% fetal bovine serum, 180 units ml^−1 penicillin, and 45 g ml^−1 streptomycin. […] The polyethyleneimine (PEI) transfection method was used for the β-arrestin 2 recruitment assays[50], endosomal signalling and basal receptor localization assays, while the lipofectamine transfection method was used for the internalization assay.
Measurement of β-arrestin 2 recruitment was performed with a BRET assay. Two days before the assay, the HEK293 cells were transiently transfected with either WT GIPR or the GIPR variants together with the donor Rluc8-Arrestin-3-Sp1, the acceptor mem-linker-citrine-SH3 and the GPCR kinase 2 to facilitate β-arrestin 2 recruitment. On assay day, the cells were washed with PBS and resuspended in PBS supplemented with 5 mmol l^−1 glucose. Subsequently, 85 µl of the cell suspension was transferred to a white 96-well plate and 10 µl of 50 µM coelenterazine-h was added.
In experiment [4] the target is T2, GIPR I299V (Homo sapiens, UniProt P48546, I299V).
T2 construct: host or cells: HEK293
T2 sequence (P48546 22-466 I299V): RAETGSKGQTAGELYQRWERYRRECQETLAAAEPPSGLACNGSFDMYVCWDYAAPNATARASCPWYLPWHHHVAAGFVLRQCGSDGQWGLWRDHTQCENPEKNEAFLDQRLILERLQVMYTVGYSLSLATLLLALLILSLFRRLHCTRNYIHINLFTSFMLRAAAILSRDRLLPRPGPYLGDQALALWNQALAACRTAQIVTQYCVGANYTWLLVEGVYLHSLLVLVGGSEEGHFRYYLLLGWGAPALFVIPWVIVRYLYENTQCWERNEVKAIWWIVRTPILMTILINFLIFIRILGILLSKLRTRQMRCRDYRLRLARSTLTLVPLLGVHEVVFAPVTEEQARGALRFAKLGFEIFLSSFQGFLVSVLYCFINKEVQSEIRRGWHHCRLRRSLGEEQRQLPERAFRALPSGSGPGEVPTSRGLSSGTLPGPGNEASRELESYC
Kind of experiment: cAMP accumulation. In kind it is cell-based.
Procedure: as §1, §2

The target in experiment [5] is T3, GIPR A294V (Homo sapiens, UniProt P48546, A294V).
T3 construct: host or cells: HEK293
T3 sequence (P48546 22-466 A294V): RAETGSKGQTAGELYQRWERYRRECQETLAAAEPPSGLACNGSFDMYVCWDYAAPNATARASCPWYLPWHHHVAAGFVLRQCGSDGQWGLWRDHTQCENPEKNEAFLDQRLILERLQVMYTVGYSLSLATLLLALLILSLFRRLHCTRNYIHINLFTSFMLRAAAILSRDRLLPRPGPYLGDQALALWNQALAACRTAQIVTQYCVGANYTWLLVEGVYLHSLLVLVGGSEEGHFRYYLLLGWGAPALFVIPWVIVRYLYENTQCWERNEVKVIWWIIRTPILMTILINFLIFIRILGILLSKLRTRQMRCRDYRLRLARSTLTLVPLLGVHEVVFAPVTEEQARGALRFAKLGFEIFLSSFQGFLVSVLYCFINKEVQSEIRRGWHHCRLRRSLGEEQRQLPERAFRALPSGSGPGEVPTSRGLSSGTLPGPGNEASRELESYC
Put plainly: cAMP accumulation. In kind it is cell-based.
Procedure: as §1, §2

B1: E291K (protein)
chain: RAETGSKGQTAGELYQRWERYRRECQETLAAAEPPSGLACNGSFDMYVCWDYAAPNATARASCPWYLPWHHHVAAGFVLRQCGSDGQWGLWRDHTQCENPEKNEAFLDQRLILERLQVMYTVGYSLSLATLLLALLILSLFRRLHCTRNYIHINLFTSFMLRAAAILSRDRLLPRPGPYLGDQALALWNQALAACRTAQIVTQYCVGANYTWLLVEGVYLHSLLVLVGGSEEGHFRYYLLLGWGAPALFVIPWVIVRYLYENTQCWERNKVKAIWWIIRTPILMTILINFLIFIRILGILLSKLRTRQMRCRDYRLRLARSTLTLVPLLGVHEVVFAPVTEEQARGALRFAKLGFEIFLSSFQGFLVSVLYCFINKEVQSEIRRGWHHCRLRRSLGEEQRQLPERAFRALPSGSGPGEVPTSRGLSSGTLPGPGNEASRELESYC
For B1, the “Efficacy at 100pmol (cAMP)” value in experiment [1] turned out to be 0.3479. In experiment [2], the “In vitro groups (cAMP)” value is reported as “LoF_camp”; the percentage_camp was under 50% cAMP; the “Beta, cAMP” value is reported as 0.3479. In experiment [3], the “In vitro groups (β-arrestin)” value is “LoF_arr” and the “Beta, Barr” value is on record as 0.1982.

B2: I299V (protein)
chain: RAETGSKGQTAGELYQRWERYRRECQETLAAAEPPSGLACNGSFDMYVCWDYAAPNATARASCPWYLPWHHHVAAGFVLRQCGSDGQWGLWRDHTQCENPEKNEAFLDQRLILERLQVMYTVGYSLSLATLLLALLILSLFRRLHCTRNYIHINLFTSFMLRAAAILSRDRLLPRPGPYLGDQALALWNQALAACRTAQIVTQYCVGANYTWLLVEGVYLHSLLVLVGGSEEGHFRYYLLLGWGAPALFVIPWVIVRYLYENTQCWERNEVKAIWWIVRTPILMTILINFLIFIRILGILLSKLRTRQMRCRDYRLRLARSTLTLVPLLGVHEVVFAPVTEEQARGALRFAKLGFEIFLSSFQGFLVSVLYCFINKEVQSEIRRGWHHCRLRRSLGEEQRQLPERAFRALPSGSGPGEVPTSRGLSSGTLPGPGNEASRELESYC
For B2, the “Efficacy at 100pmol (cAMP)” value in experiment [4] came to 1.005. Also, in experiment [2], the “In vitro groups (cAMP)” value is on record as “WT-like_camp”; the percentage_camp was over 50% cAMP; the “Beta, cAMP” value stood at 1.005. Further, in experiment [3], the “In vitro groups (β-arrestin)” value was “WT-like_arr” and the “Beta, Barr” value was determined as 0.7578.

B3: A294V (protein)
chain: RAETGSKGQTAGELYQRWERYRRECQETLAAAEPPSGLACNGSFDMYVCWDYAAPNATARASCPWYLPWHHHVAAGFVLRQCGSDGQWGLWRDHTQCENPEKNEAFLDQRLILERLQVMYTVGYSLSLATLLLALLILSLFRRLHCTRNYIHINLFTSFMLRAAAILSRDRLLPRPGPYLGDQALALWNQALAACRTAQIVTQYCVGANYTWLLVEGVYLHSLLVLVGGSEEGHFRYYLLLGWGAPALFVIPWVIVRYLYENTQCWERNEVKVIWWIIRTPILMTILINFLIFIRILGILLSKLRTRQMRCRDYRLRLARSTLTLVPLLGVHEVVFAPVTEEQARGALRFAKLGFEIFLSSFQGFLVSVLYCFINKEVQSEIRRGWHHCRLRRSLGEEQRQLPERAFRALPSGSGPGEVPTSRGLSSGTLPGPGNEASRELESYC
On to B3, for which, in experiment [5], the “Efficacy at 100pmol (cAMP)” value came out at 0.6171. In experiment [2], the “In vitro groups (cAMP)” value is “WT-like_camp”; the percentage_camp is listed as over 50% cAMP; the “Beta, cAMP” value came out at 0.6171. Further, in experiment [3], the “In vitro groups (β-arrestin)” value is given as “WT-like_arr” and the “Beta, Barr” value is given as 0.6328.
